# Data: US20250326807A1, “CALPROTECTIN BINDING PEPTIDES” (Buehlmann Laboratories AG, priority 2022, published 2025)
# T1: Recombinantly expressed fused calprotectin (His6-linker-S100A9-linker-S100A8), product code B-RCAL, BÜHLMANN Laboratories AG (human), P06702
# T1 chain: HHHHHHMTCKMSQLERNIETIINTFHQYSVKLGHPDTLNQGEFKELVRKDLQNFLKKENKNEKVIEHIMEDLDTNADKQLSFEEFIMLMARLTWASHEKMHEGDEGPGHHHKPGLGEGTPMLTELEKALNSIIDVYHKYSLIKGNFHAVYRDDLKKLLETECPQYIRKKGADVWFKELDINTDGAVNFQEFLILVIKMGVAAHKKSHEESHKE
# Biological target: T1, Recombinantly expressed fused …
# Assay: SPR
# Conditions: modification not given
row,Kd,Binder
1,> 10 µM,RCPECVAFPMAQCHWYCG [F11 L-Ala]
2,> 10 µM,RCPECVAFPMFQCHWACG [Y16 L-Ala]
3,> 10 µM,RCPECVAIPMFQCHWYCG [F8 Ile]
4,> 10 µM,RCPECVAEPMFQCHWYCG [F8 Glu]
5,> 10 µM,RCPECVAFPMIQCHWYCG [F11 Ile]
6,> 10 µM,RCPECVAFPMFQCAWYCG [H14 L-Ala]
7,> 10 µM,RCPECVAAPMFQCHWYCG [F8 L-Ala]
8,> 10 µM,RCPECVAYPMFQCHWYCG [F8 Tyr]
9,> 10 µM,RCPECVAFPMKQCHWYCG [F11 Lys]
10,> 10 µM,RCPECVAFPMQQCHWYCG [F11 Gln]
11,> 10 µM,RCPECVAFPMEQCHWYCG [F11 Glu]
12,> 10 µM,RCPECVAQPMFQCHWYCG [F8 Gln]

# Biological target: T1, Recombinantly expressed fused …
# Assay: fluorescence polarization
# Conditions: modification not given
row,Kd,Binder
1,29 nM,RCPECVGFPMFQCHWYCG
2,27 nM,RSPESVAFPMFASHWYSG
3,31 nM,RSPESVAFPMFQSHWYSA
4,32 nM,ASPESVAFPMFQSHWYSG
5,24 nM,RSPESVAFPMFQSHAYSG
6,26 nM,RSPASVAFPMFQSHWYSG
7,39 nM,RSPESAAFPMFQSHWYSG
8,32 nM,ACPECVAFPMFQCHWYCG
9,30 nM,RCPECVAFAMFQCHWYCG
10,26 nM,RCPACVAFPMFQCHWYCG
11,28 nM,RCAECVAFPMFQCHWYCG
12,24 nM,RCPECVAFPMFQCHAYCG
13,29 nM,RSPESVGFPMFQSHWYSG
14,30 nM,RSPESVAFAMFQSHWYSG
15,31 nM,RCPECVAFPMFQCHWYCA
16,27 nM,RCPECVAFPMFACHWYCG
17,28 nM,RSAESVAFPMFQSHWYSG
18,39 nM,RCPECAAFPMFQCHWYCG
